Values belong to the molecule of their own block, whether it stands above or below them.
Assays:
[1] = target: Human γD-crystallin I4F/V76D, bimane-labeled at cysteine 111 (human) (UniProt P07320); assay: fluorescence polarisation
[2] = target: T1, triply phosphorylated analog (S19D/S45D/S59D) of αB-crystallin (UniProt P02511 1-175, S19D | S45D | S59D); assay: fluorescence polarisation
T1 sequence (looked up): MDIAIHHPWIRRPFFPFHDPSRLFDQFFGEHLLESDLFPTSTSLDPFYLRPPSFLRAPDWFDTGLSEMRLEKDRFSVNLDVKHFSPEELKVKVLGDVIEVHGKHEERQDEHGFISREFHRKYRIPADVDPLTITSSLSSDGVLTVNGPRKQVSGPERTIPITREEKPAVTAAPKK

Kd [1]: > 300 µM
Molecule: αB-crystallin (from UniProt P02511 1-175) (natural protein)

Kd [2]: 27 ± 6 µM
B1: Human γD-crystallin I4F/V76D, bimane-labeled at cysteine 111 (natural protein)
chain: GKFTLYEDRGFQGRHYECSSDHPNLQPYLSRCNSARVDSGCWMLYEQPNYSGLQYFLRRGDYADHQQWMGLSDSDRSCRLIPHSGSHRIRLYEREDYRGQMIEFTEDCSCLQDRFRFNEIHSLNVLEGSWVLYELSNYRGRQYLLMPGDYRRYQDWGATNARVGSLRRVIDFS
modifications: bimane label at cysteine C111

Source: paper PMC3282170 (Febs Letters, 2012)
